Measured values: the DeepSol protein solubility set

Assay: soluble on expression in E. coli; label from the status in PepcDB or PDB records

| Sequence | soluble on expression in E. coli |
| --- | --- |
| REVYVLVIGETARACNFGLYGYERNTTPLLDKMEGVVTFTDVLTQSNTTHKSVPMLLSAASAEDYDCLYRQKGIITAFKEAGFHTAFFSNQLPNHSFIDFLGMEADDWKFIKKDAPKGANISDDELLFLVEKELKAGHQKLFIVLHAYGSHFNYKERYPESMSVFKPDNLTDAKYENKEYLMNAYDNTIRYTDGFLASLITLLQKTNSFSAMLYTSDHGEDIFDDNRKLFLHASPVPSYYQLHVPFLIWLSKTYREKNVEVHEAILQNREKPVAGNASVFHTMLNLAGVQTPYRADSLSVAN | not soluble |
| MSLSRTTQLPFAKRQFFQVLARNYSNTQDADLVVIGGGPGGYVAAIKAAQLGMKTVCVEKNATLGGTCLNVGCIPSKALLNNSHYLHMAQHDFAARGIDCTASLNLPKMMEAKSNSVKQLTGGIKQLFKANKVGHVEGFATIVGPNTVQAKKNDGSVETINARNILIASGSEVTPFPGITIDEKQIVSSTGALSLGQVPKKMVVIGAGVIGLELGSVWQRLGAEVTAVEFLGHVGGMGIDGEVSKNFQRSLTKQGFKFLLNTKVMGASQNGSTITVEVEGAKDGKKQTLECDTLLVSVGRRPYTEGLGLSNVQIDLDNRGRVPVNERFQTKVPSIFAIGDVIEGPMLAHKAEDEGILCVEGIAGGPVHIDYNCVPSVVYTHPEVAWVGKAEEQLKQEGVAYKIGKFPFVANSRAKTNNDQEGFVKVLADKQTDRMLGVHIIGPNAGEMIAEATLAMEYGASAEDVARVCHPHPTLSEAFREANLAAYCGKAINNV | not soluble |
| MTEEFNESMINDIKEGDKVTGEVQQVEDKQVVVHINGGKFNGIIPISQLSTHHIENPSEVVKQGDEIEAYVTKIEVDEENDSGVYILSKRQLETEKSYEYLQEKLDNDEIIEAKVTEVVKGGLVVDVGQRGFVPASLISTDFIEDFSVFDGQTIRIKVEELDPENNRVILSRKAVEQAENDVKKASLLESLNAGDVIKGKVARLTNFGAFVDIGGVDGLVHVSELSHEHVDSPEDVVSVGQEVDVKVKSVEKDAERISLSIKDTLPTPFESIKGQFHEDDVIEGKVVRLANFGAFVEIAPGVQGLVHISEIAHEHIGTPGEKLEPGQQVNVKILGIDEENERISLSIKATLPKEDVVESDDATTQSYLSNDSIEDNPTLGDVFGDKFKDLKF | soluble |
| MGKVYVFDHPLIQHKLTYIRDKNTGTKEFRELVDEVATLMAFEITRDLPLEEVEIETPVSKARAKVIAGKKLGVIPILRAGIGMVDGILKLIPAAKVGHIGLYRDPQTLKPVEYYVKLPSDVEERDFIIVDPMLATGGSAVAAIDALKKRGAKSIKFMCLIAAPEGVKAVETAHPDVDIYIAALDERLNDHGYIVPGLGDAGDRLFGTK | soluble |
| MCSAGGIRRPIQIEEFKTAISGMSDMELAQIKTEIENSINHLQRSNARLGKYIAKLEGADDRLEADDSDDLENIDSGDLALYKDSVRENEIVLNNYNERVDALEQETVYRKTGHGKSKHEVEAKDNTNKGPDVDMDNSNVDVVTPNSIFI | soluble |
| MAHHHHHHMAEPNASGFRVIQILENYGVASSDIKKLMECGFYTVESAAYAPKKAILAVKGISENKAEKIMAECAKLVPMGFTSAVAYHEARKEIIMVTTGSREVDKLLGGGIETGSITELFGEFRTGKTQLCHTLCVTCQLPISQGGAEGMALYIDTEGTFRPERLVAVAERYKLDPEDVLANVACARAFNTDHQQQLLLQASAMMAENRFALIIVDSATALYRTDYSGRNELAARQMHLGKFLRSLHNLAEEYGVAVVVTNQVVANVDGSAQMFQADSKKPIGGHIMAHASTTRLSLRKGRGEQRIIKVYDSPCLAEAEAIFGIYDDGVGDARD | not soluble |
| MANLPSSSGMFSRLLANVFNTTVASRCSASGRWWPQPDRRFTTKSDEKSSLEPKNTNETDVIITQQGVKLSKSNAAPVYYKPKSTGPGYELVEHKKGEMIANYTLFEAAINKSKVPWVNYDGLTSEERTIHMAHTRAINDRKLTYIDPKTGYSVFTISHHLQKGKCCGNGCRHCAYEMINASDEIRSQKVWNGAFYV | not soluble |
| MGSDKIHHHHHHMGLAKTRSAAISGVTGVIVDVEANIGAGLPGTYIVGLADAAVAEARQRIKTAVNNSELPWPKTKVIVNLSPASLRKNGAQFDLGICMAIMAASGMHNPDCRDIENTLFLGEIGLDGAIKPISGLVPALLAARGAEIRNVVIPWGNAAEAMAVIDDSAMNVLVARSISEATEWLKGKDDLIAAHDVILDEHATKKQPHKVGDMQDVVGQSDAKKAAEIAVAGGHNIVMIGPPGSGKSMIAQRMAGLLPALTHTEMIEATAIHSVMGQAFNGPMTHPPFVAPHHSITKAALLGGGSGNLQPGAASLAHTGVLFLDEVSEIPANILDCLRMPLECGEIKLMRHRREVTFPARFQLVMATNPCRCAAELPSECRCSATTRARYLSNISGPLRDRLDIFVRTHAQGAVISDANQESSKSIAERVQSARERSEHRWRTAGFTVTTNAAMDPYHLRRHFPADEASMALLSSYLGDGELSQRGVDRALKVAWTLCDLEGKTRPDLGHTAYALELRDDCIRENAA | not soluble |
| MSLLFSNTYRIESNAPLADKLRPKNLDDFFGQESILGHDSLLRNAILNDKVGNMIFSGPPGVGKTTLIEIISSNTRSSLIKLNAVLSSIKELRTEIANAKERLRSSNRKTILFIDEVHRFTSVQQDALLPSIENGTITFIGATTENPFFAVNKALISRARIFSLLPLNKNDLKKIIDKVIKYYSCLKDSKVVEIKEEAMNHLIKFSGGDARNLINALELGISITKENKENLVVIDLAIAEDSIQKKNIVYDKNGQNHFDVISAFIKSIRGSDPDATLYWLANMVEAGEDPNFIFRRLLISACEDIGLADPNAIVVVQSCCDAFDRVGFPEGLFFLSQASLYLAISPKSNSTKSIFKAMEAIKATNVSLVPNHLKNNASNYLNPHNYQGKWLQQEYLPTDLQGIKFWKPKDSGWEKNKYEDLPKKQKSEGHHHHHH | not soluble |
| MVKVTIIIPTYNPREHLIDTLLSVRTQNFTNIEVLIVDDGSTVDVSTLIKPYITADNIRCIRRKNGGTAAARNTGITNSTGEYIAFLDHDDIWLPDKVALQVEALDRNLSCGLTYCNFQILDEQTGSLINPHRQGEGGCMFEKFLYRNYITTASQIMVRRSCFDQLGLFDESLPIVDDYDFYLRLSRCYDIHYDPRVLTHWRSHQFNTSKNYEKTQLGRIKVKETALNRWALSDNQKKILFKGLRRDYYELAYYYLNSEKYSDARNYFRKAVPYRPVKSIVYYLSTCVPGLSYLNMKALKNDFLKLEHHHHHH | not soluble |
| MSNEVEQKKNIKTINDLPGISQTVINKLIEAGYSSLETLAVASPQDLSVAAGIPLSTAQKIIKEARDALDIRFKTALEVKKERMNVKKISTGSQALDGLLAGGIETRTMTEFFGEFGSGKTQLCHQLSVNVQLPPEKGGLSGKAVYIDTEGTFRWERIENMAKALGLDIDNVMNNIYYIRAINTDHQIAIVDDLQELVSKDPSIKLIVVDSVTSHFRAEYPGRENLAVRQQKLNKHLHQLTRLAEVYDIAVIITNQVMARPDMFYGDPTVAVGGHTLYHVPGIRIQLKKSRGNRRIARVVDAPHLPEGEVVFALTEEGIRDAEE | soluble |
| MSLKIAVLDDYQDAVRKLDCFSLLQDHEVKVFNNTVKGVGQLAARVADVEAIVLIRERTRVTRQLLDRLPKLKIISQTGRVSRDAGGHIDLEACTDKGVVVLEGKGSPVAPAELTWALVMAAQRRIPQYVASLKHGAWQQSGLKSTTMPPNFGIGRVLKGQTLGIFGYGKIGQLVAGYGRAFGMNVLVWGRENSKERARADGFAVAESKDALFEQSDVLSVHLRLNDETRGIVTVADLTRMKPTALFVNTSRAELVEENGMVTALNRGRPGMAAIDVFETEPILQGHTLLRMENCICTPHIGYVERESYEMYFGIAFQNILDILQGNVDSVANPTALAPALIRAEGHHHHHH | soluble |
| MSLLKMYADKRGLKDIKSNMVMREFEEVFEKFKDWTEKIKQKYPNPDEILNLEKEEKWDFSDLFGEFLGDYRTVKSYHEFDKDNPYLPSDEFNKYFAAFSQIQEEIRKEKAEKKALEVQEEDLSNEVRKEPQIFSWEYGEGIQANLDYIFHLIKDLYNCDNEQDRQKVLDKIKTAIRTNPEIQVNEDILNEFIEDLGKSFEKEKLEEVWKTEGKLRECLKDFCKKKEESNKKKIINDFLVKGVFLVEWVADKQLNTAKKKGEYSPSWSDTEKLIWKEKSTNLPTMTEKDEDGNFKWRKLITDISEAFKNEGHHHHHH | soluble |
